Test results reported in US12295987B2, “Method of using a GIP/GLP1 co-agonist for diabetes” (Eli Lilly and Company, priority 2018, dated 2025).
Numbered stars: 1 amine (or outer) side, 2 acyl side, 3 side chain; on linkers, the order of the positions; unused ones are H or OH. Square brackets hold non-standard residues; d marks the D form. Side chains are listed from the residue outwards. Ends that are not written are not given here. * marks the point of attachment. C20 diacid = O=C(O)CCCCCCCCCCCCCCCCCCC(=O)*; C18 diacid = O=C(O)CCCCCCCCCCCCCCCCC(=O)*; αMePhe(2-F) = C[C@](N)(Cc1ccccc1F)C(=O)O; γGlu = O=C(O)[C@H](CCC(=O)[*:2])N[*:1]; αMeL = CC(C)C[C@](C)(N)C(=O)O; AEEA = NCCOCCOCC(=O)O; Aib = CC(C)(N)C(=O)O

Biological target: T1, human gastric inhibitory peptide receptor (hGIPR) (Homo sapiens, UniProt P48546)
T1 construct: expressed in transfected cells; host or cells: HEK293
T1 sequence (P48546 22-466): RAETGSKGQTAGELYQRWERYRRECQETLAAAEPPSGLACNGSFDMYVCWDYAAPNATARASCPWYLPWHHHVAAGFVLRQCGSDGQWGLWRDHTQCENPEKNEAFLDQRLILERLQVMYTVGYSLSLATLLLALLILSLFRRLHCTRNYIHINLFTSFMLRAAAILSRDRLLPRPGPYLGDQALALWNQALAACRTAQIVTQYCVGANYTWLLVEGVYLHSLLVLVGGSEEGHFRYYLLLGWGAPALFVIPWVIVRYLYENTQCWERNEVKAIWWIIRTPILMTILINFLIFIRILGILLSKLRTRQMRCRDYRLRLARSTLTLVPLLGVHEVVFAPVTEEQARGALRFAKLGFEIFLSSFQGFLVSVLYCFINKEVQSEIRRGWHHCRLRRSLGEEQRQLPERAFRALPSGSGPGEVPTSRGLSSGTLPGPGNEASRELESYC
Assay: cAMP pharmacological functional assay in presence of 0.1% casein, hGIPR
Format: cell-based
Settings: ratio of hGIPR to hGLP1R cAMP EC50 ratios

Substance | [hGIPR/hGLP1R] EC50 Ratio
Y-Aib-EGT-αMeF(2F)-TSDHSI-αMeL-LDEK((2-[2-(2-Amino-ethoxy)-ethoxy]-acetyl)2-(γGlu)-CO—(CH2)16—CO2H)AQ-Aib-HFI-(D-Glu)-YLIEGGPSSG-NH2 (Y[Aib]EGT[αMePhe(2-F)]TSDHSI[αMeL]LDEK([AEEA-AEEA-γGlu-C18 diacid])AQ[Aib]HFI[dE]YLIEGGPSSG-NH2; N-terminus assumed; SMILES CC[C@H](C)[C@H](NC(=O)[C@H](CC(C)C)NC(=O)[C@H](Cc1ccc(O)cc1)NC(=O)[C@@H](CCC(=O)O)NC(=O)[C@@H](NC(=O)[C@H](Cc1ccccc1)NC(=O)[C@H](Cc1c[nH]cn1)NC(=O)C(C)(C)NC(=O)[C@H](CCC(N)=O)NC(=O)[C@H](C)NC(=O)[C@H](CCCCNC(=O)COCCOCCNC(=O)COCCOCCNC(=O)CC[C@H](NC(=O)CCCCCCCCCCCCCCCCC(=O)O)C(=O)O)NC(=O)[C@H](CCC(=O)O)NC(=O)[C@H](CC(=O)O)NC(=O)[C@H](CC(C)C)NC(=O)[C@](C)(CC(C)C)NC(=O)[C@@H](NC(=O)[C@H](CO)NC(=O)[C@H](Cc1c[nH]cn1)NC(=O)[C@H](CC(=O)O)NC(=O)[C@H](CO)NC(=O)[C@@H](NC(=O)[C@](C)(Cc1ccccc1F)NC(=O)[C@@H](NC(=O)CNC(=O)[C@H](CCC(=O)O)NC(=O)C(C)(C)NC(=O)[C@@H](N)Cc1ccc(O)cc1)[C@@H](C)O)[C@@H](C)O)[C@@H](C)CC)[C@@H](C)CC)C(=O)N[C@@H](CCC(=O)O)C(=O)NCC(=O)NCC(=O)N1CCC[C@H]1C(=O)N[C@@H](CO)C(=O)N[C@@H](CO)C(=O)NCC(N)=O) [Peptide 179] | 3.40
Y-Aib-EGT-αMeF(2F)-TSDHSI-αMeL-LDEK((2-[2-(2-Amino-ethoxy)-ethoxy]-acetyl)2-(γGlu)-CO—(CH2)16—CO2H)AQ-Aib-TFI-(D-Glu)-YLIEGGPSSGAPPPS-NH2 (YXEGTXTSDHSIXLDEKAQXTFIXYLIEGGPSSGAPPPS; Aib, αMeF(2F), αMeL, D-Glu; C18 diacid lipidated K; amide; (2)..(2) Xaa at position 2 is Aib; (6)..(6) Xaa at position 6 is alpha-methyl-Phe(2F); (13)..(13) Xaa at position 13 is alpha-methyl-Leu; MOD_RES (17)..(17) Lys at position 17 is chemically modified by conjugation of the epsilon-amino group of the Lys side chain with (2-[2-(2-amino-ethoxy)-ethoxy]-acetyl)2-(gamma-Glu)-CO-(CH2)16- CO2H; (20)..(20) Xaa at position 20 is Aib; (24)..(24) Xaa at positi) [Peptide 169] | 8.97
Y-Aib-EGT-αMeF(2F)-TSDHSI-αMeL-LDEK((2-[2-(2-Amino-ethoxy)-ethoxy]-acetyl)2-(γGlu)-CO—(CH2)18—CO2H)AQ-Aib-EFIEYLIEGGPSSGAPPPS-NH2 (Y[Aib]EGT[αMePhe(2-F)]TSDHSI[αMeL]LDEK([AEEA-AEEA-γGlu-C20 diacid])AQ[Aib]EFIEYLIEGGPSSGAPPPS-NH2; N-terminus assumed; SMILES CC[C@H](C)[C@H](NC(=O)[C@H](CC(C)C)NC(=O)[C@H](Cc1ccc(O)cc1)NC(=O)[C@H](CCC(=O)O)NC(=O)[C@@H](NC(=O)[C@H](Cc1ccccc1)NC(=O)[C@H](CCC(=O)O)NC(=O)C(C)(C)NC(=O)[C@H](CCC(N)=O)NC(=O)[C@H](C)NC(=O)[C@H](CCCCNC(=O)COCCOCCNC(=O)COCCOCCNC(=O)CC[C@H](NC(=O)CCCCCCCCCCCCCCCCCCC(=O)O)C(=O)O)NC(=O)[C@H](CCC(=O)O)NC(=O)[C@H](CC(=O)O)NC(=O)[C@H](CC(C)C)NC(=O)[C@](C)(CC(C)C)NC(=O)[C@@H](NC(=O)[C@H](CO)NC(=O)[C@H](Cc1c[nH]cn1)NC(=O)[C@H](CC(=O)O)NC(=O)[C@H](CO)NC(=O)[C@@H](NC(=O)[C@](C)(Cc1ccccc1F)NC(=O)[C@@H](NC(=O)CNC(=O)[C@H](CCC(=O)O)NC(=O)C(C)(C)NC(=O)[C@@H](N)Cc1ccc(O)cc1)[C@@H](C)O)[C@@H](C)O)[C@@H](C)CC)[C@@H](C)CC)C(=O)N[C@@H](CCC(=O)O)C(=O)NCC(=O)NCC(=O)N1CCC[C@H]1C(=O)N[C@@H](CO)C(=O)N[C@@H](CO)C(=O)NCC(=O)N[C@@H](C)C(=O)N1CCC[C@H]1C(=O)N1CCC[C@H]1C(=O)N1CCC[C@H]1C(=O)N[C@@H](CO)C(N)=O) [Peptide 154] | 4.80
Y-Aib-EGT-αMeF(2F)-TSDHSI-αMeL-LDEK((2-[2-(2-Amino-ethoxy)-ethoxy]-acetyl)2-(γGlu)-CO—(CH2)18—CO2H)AQ-Aib-TFI-(D-Glu)-YLIEGGPSSG-NH2 (Y[Aib]EGT[αMePhe(2-F)]TSDHSI[αMeL]LDEK([AEEA-AEEA-γGlu-C20 diacid])AQ[Aib]TFI[dE]YLIEGGPSSG-NH2; N-terminus assumed; SMILES CC[C@H](C)[C@H](NC(=O)[C@H](CC(C)C)NC(=O)[C@H](Cc1ccc(O)cc1)NC(=O)[C@@H](CCC(=O)O)NC(=O)[C@@H](NC(=O)[C@H](Cc1ccccc1)NC(=O)[C@@H](NC(=O)C(C)(C)NC(=O)[C@H](CCC(N)=O)NC(=O)[C@H](C)NC(=O)[C@H](CCCCNC(=O)COCCOCCNC(=O)COCCOCCNC(=O)CC[C@H](NC(=O)CCCCCCCCCCCCCCCCCCC(=O)O)C(=O)O)NC(=O)[C@H](CCC(=O)O)NC(=O)[C@H](CC(=O)O)NC(=O)[C@H](CC(C)C)NC(=O)[C@](C)(CC(C)C)NC(=O)[C@@H](NC(=O)[C@H](CO)NC(=O)[C@H](Cc1c[nH]cn1)NC(=O)[C@H](CC(=O)O)NC(=O)[C@H](CO)NC(=O)[C@@H](NC(=O)[C@](C)(Cc1ccccc1F)NC(=O)[C@@H](NC(=O)CNC(=O)[C@H](CCC(=O)O)NC(=O)C(C)(C)NC(=O)[C@@H](N)Cc1ccc(O)cc1)[C@@H](C)O)[C@@H](C)O)[C@@H](C)CC)[C@@H](C)O)[C@@H](C)CC)C(=O)N[C@@H](CCC(=O)O)C(=O)NCC(=O)NCC(=O)N1CCC[C@H]1C(=O)N[C@@H](CO)C(=O)N[C@@H](CO)C(=O)NCC(N)=O) [Peptide 167] | 5.98
Y-Aib-EGT-αMeF(2F)-TSDHSI-αMeL-LDEK((2-[2-(2-Amino-ethoxy)-ethoxy]-acetyl)2-(γGlu)-CO—(CH2)18—CO2H)AQ-Aib-TFI-(D-Glu)-YLIEGGPSSGAPPPS-NH2 (YXEGTXTSDHSIXLDEKAQXTFIXYLIEGGPSSGAPPPS; Aib, αMeF(2F), αMeL, D-Glu; lipidated K; C-terminal amide; (2)..(2) Xaa at position 2 is Aib; (6)..(6) Xaa at position 6 is alpha-methyl-Phe(2F); (13)..(13) Xaa at position 13 is alpha-methyl-Leu; MOD_RES (17)..(17) Lys at position 17 is chemically modified by conjugation of the epsilon-amino group of the Lys side chain with (2-[2-(2-amino-ethoxy)-ethoxy]-acetyl)2-(gamma-Glu)-CO-(CH2)18- CO2H; (20)..(20) Xaa at position 20 is Aib; (24)..(24) Xaa at positi) [Peptide 168] | 9.69
Y-Aib-EGT-αMeF(2F)-TSDHSI-αMeL-LDEK((2-[2-(2-Amino-ethoxy)-ethoxy]-acetyl)2-(εK)-CO—(CH2)16—CO2H)AQ-Aib-TFI-(D-Glu)-YLIEGGPSSGAPPPS-NH2 (YXEGTXTSDHSIXLDEKAQXTFIXYLIEGGPSSGAPPPS; Aib, αMeF(2F), αMeL, D-Glu; εK-lipidated K; amide; (2)..(2) Xaa at position 2 is Aib; (6)..(6) Xaa at position 6 is alpha-methyl-Phe(2F); (13)..(13) Xaa at position 13 is alpha-methyl-Leu; MOD_RES (17)..(17) Lys at position 17 is chemically modified by conjugation of the epsilon-amino group of the Lys side chain with (2-[2-(2-amino-ethoxy)-ethoxy]-acetyl)2-(epsilon-Lys)-CO-(CH2)16- CO2H; (20)..(20) Xaa at position 20 is Aib; (24)..(24) Xaa at posi) [Peptide 176] | 4.71
Y-Aib-EGT-αMeF(2F)-TSDHSI-αMeL-LDEK((2-[2-(2-Amino-ethoxy)-ethoxy]-acetyl)2-CO—(CH2)18—CO2H)AQ-Aib-TFI-(D-Glu)-YLIEGGPSSGAPPPS-NH2 (YXEGTXTSDHSIXLDEKAQXTFIXYLIEGGPSSGAPPPS; Aib, αMeF(2F), αMeL, D-Glu; lipidated K; amide; (2)..(2) Xaa at position 2 is Aib; (6)..(6) Xaa at position 6 is alpha-methyl-Phe(2F); (13)..(13) Xaa at position 13 is alpha-methyl-Leu; MOD_RES (17)..(17) Lys at position 17 is chemically modified by conjugation of the epsilon-amino group of the Lys side chain with (2-[2-(2-amino-ethoxy)-ethoxy]-acetyl)2-CO-(CH2)18-CO2H; (20)..(20) Xaa at position 20 is Aib; (24)..(24) Xaa at position 24 is D-Gl) [Peptide 174] | 4.99
